Patent US20220267469A1 (LIPUM, published 2022)
Substitutions are numbered along the chain they refer to. Names may count otherwise. Values belong to the binder of their own block, whether it stands above or below them.

Tests used:
Mouse BSSL, recombinant = target: T1, Mouse BSSL, recombinant (mouse, UniProt Q64285 21-599); test: SPR steady state, hIgG4 S228P captured by anti-Fab
T1 construct: Bought (R&D Systems, Cat. no 5658-CE); also called mBSSL; murine BSSL
T1 sequence: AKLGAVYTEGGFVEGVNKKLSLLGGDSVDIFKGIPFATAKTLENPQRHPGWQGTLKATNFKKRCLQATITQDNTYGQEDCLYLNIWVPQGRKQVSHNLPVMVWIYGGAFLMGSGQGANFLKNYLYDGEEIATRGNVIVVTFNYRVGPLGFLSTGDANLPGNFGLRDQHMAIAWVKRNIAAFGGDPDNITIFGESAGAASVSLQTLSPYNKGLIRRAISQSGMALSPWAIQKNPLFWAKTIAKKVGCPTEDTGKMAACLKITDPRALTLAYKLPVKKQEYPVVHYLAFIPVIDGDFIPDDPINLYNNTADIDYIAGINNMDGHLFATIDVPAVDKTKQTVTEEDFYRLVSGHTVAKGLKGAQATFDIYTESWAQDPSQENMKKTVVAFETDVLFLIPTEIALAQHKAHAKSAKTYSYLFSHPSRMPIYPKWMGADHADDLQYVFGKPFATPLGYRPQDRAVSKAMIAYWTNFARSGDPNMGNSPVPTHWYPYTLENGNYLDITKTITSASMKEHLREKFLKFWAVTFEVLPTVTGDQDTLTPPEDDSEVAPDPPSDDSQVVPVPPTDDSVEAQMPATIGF
Description: (§1) Kinetic parameters of the hIgG4 S228P clones were determined by SPR using BIACORE® T200 (GE Healthcare). Single cycle kinetics was used to measure the affinity of the purified hIgG4 molecules to human and mouse BSSL. An anti-Fab antibody (GE Healthcare, #28958325) was immobilized on a CM5 S sensor chip by primary amine coupling using NHS-EDC chemistry. hIgG4 was captured by the anti-Fab antibody, and subsequently, five different concentrations of hBSSL (1:5 dilutions starting from 50 nM) or mBSSL (1:5 dilutions starting from 500 nM) were injected over the surface. The sensor chip surface was regenerated with 10 mM glycine-HCl pH 2.1. For binding to human BSSL, single cycle kinetic data was fitted to a 1:1 binding model and kinetic parameters were retrieved using software BlAevaluation. For mouse BSSL, a steady state analysis was performed by plotting the response level at equilibrium against each concentration, and KD values were retrieved by the BlAevalution software.

Biotinylated human BSSL [1] = target: T2, Biotinylated human BSSL (human, UniProt P19835 21-753, Biotinylated on glycosacarides, 30-40 biotin/BSSL); test: flow cytometry displacement assay; 0.5 ug antibody, 1 ug b-hBSSL
T2 construct: hBSSL biotinylated in house; also called b-hBSSL; human BSSL-biotin
T2 sequence: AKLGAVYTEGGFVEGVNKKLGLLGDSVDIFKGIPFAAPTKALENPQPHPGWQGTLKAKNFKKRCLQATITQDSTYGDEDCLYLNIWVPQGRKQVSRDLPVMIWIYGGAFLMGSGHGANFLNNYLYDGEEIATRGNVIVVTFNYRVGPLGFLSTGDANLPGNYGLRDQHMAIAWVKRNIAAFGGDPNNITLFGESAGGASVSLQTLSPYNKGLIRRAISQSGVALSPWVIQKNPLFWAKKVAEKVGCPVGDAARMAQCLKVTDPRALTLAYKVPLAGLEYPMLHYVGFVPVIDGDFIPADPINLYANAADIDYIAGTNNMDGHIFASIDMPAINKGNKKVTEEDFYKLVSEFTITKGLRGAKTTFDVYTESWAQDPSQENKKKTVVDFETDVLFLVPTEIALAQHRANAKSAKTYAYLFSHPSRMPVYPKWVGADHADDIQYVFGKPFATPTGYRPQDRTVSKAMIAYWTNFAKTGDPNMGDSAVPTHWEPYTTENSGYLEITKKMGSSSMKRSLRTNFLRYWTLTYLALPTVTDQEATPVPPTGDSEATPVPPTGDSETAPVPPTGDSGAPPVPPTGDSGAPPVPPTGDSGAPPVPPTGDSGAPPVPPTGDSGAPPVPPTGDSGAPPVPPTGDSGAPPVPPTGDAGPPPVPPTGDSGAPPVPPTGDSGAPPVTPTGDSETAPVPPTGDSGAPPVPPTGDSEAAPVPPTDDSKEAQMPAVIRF
Description: (§2) The 28 BSSL-specific hIgG4 antibodies and the five reference antibodies at different concentrations (ranging from 0.5 μg to 3.0 μg per reaction; see Table 10) were added to b-hBSSL (1 μg per reaction, see Table 2) in round-bottom polystyrene tubes, lx PBS (pH 7.4) was added to a final volume of 20 μl and the antibody/b-hBSSL mixtures were incubated for 30 min. at +4° C. to facilitate binding of antibodies to BSSL. Buffy coat (50 μl) was then added to each antibody/b-hBSSL mixture and incubation continued for another 30 min at +4° C. Thereafter, 2 ml of FACS lysing solution (BD Biosciences) was added and the cells were incubated for 10 min at room temperature in order to lyse erythrocytes and fix the white blood cells. The cells were then centrifuged for 5 min. at 200×g, the resulting pellets were washed by adding 2 ml of FACS buffer (1×PBS supplemented with 1% FCS and 0.1% NaN3) and centrifuged again. Finally, the supernatants were discarded and the cells were resuspended in the last drop of liquid, approximately 50 μl.
(§3) 5 μl of BV421-labelled anti-human CD14 (BD Biosciences) and 5 μl of BB515-labelled streptavidin (BD Biosciences) was added to each tube and incubated for 30 min, at +4° C., protected from light. Thereafter, cells were washed twice with FACS buffer, resuspended in 500 μl FACS buffer, and run on BD LSRII flow cytometer (BD Biosciences). Finally, data were analyzed using FlowJo software (BD Biosciences).

Biotinylated human BSSL [2] = target: T2, Biotinylated human BSSL; test: flow cytometry displacement assay; 1.0 ug antibody, 1 ug b-hBSSL
Description: as §2, §3

Biotinylated human BSSL [3] = target: T2, Biotinylated human BSSL; test: flow cytometry displacement assay; 3.0 ug antibody, 1 ug b-hBSSL
Description: as §2, §3

Biotinylated human BSSL [4] = target: T2, Biotinylated human BSSL; test: flow cytometry displacement assay; 2.0 ug antibody, 1 ug b-hBSSL
Description: as §2, §3

Biotinylated human BSSL [5] = target: T2, Biotinylated human BSSL; test: flow cytometry displacement assay; 1.5 ug antibody, 1 ug b-hBSSL
Description: as §2, §3

[6] = target: T3, Human BSSL (bile salt-stimulated lipase), native (human, UniProt P19835 21-753); test: SPR single cycle kinetics, hIgG4 S228P captured by anti-Fab
T3 construct: Native full-length protein purified from human milk (Astra Hässle AB); also called hBSSL; non-biotinylated human BSSL
T3 sequence: T2 sequence
Description: as §1

- Kd (Mouse BSSL, recombinant): 79 nM
- percentage reduction of b-hBSSL binding to CD14+ monocytes (Biotinylated human BSSL [1]): 12%
- percentage reduction of b-hBSSL binding to CD14+ monocytes (Biotinylated human BSSL [2]): 29%
- percentage reduction of b-hBSSL binding to CD14+ monocytes (Biotinylated human BSSL [3]): 72%
- percentage reduction of b-hBSSL binding to CD14+ monocytes (Biotinylated human BSSL [4]): 71%
- percentage reduction of b-hBSSL binding to CD14+ monocytes (Biotinylated human BSSL [5]): 51%
- Kd [6]: 1.2 nM
B1: S-SL048-41 hIgG4 S228P (antibody, V domains shown)
VH: QVQLVQSGAEVKKPGASVKVSCKASGYTFTSYNMHWVRQAPGQGLEWIGVIYPGDGATSYAQKFKGRVTMTRDTSTSTVYMELSSLRSEDTAVYYCARDYYGSSPLGYWGQGTLVTVSS
VL: DIQMTQSPSSLSASVGDRVTITCRASSSISYMNWYQQKPGKAPKLLIYATSRLPSGVPSRFSGSGSGTDFTLTISSLQPEDFATYYCHQRSSSPTFGQGTKLEIK
notes: Tested as human IgG4 S228P

- Kd (Mouse BSSL, recombinant): 41 nM
- percentage reduction of b-hBSSL binding to CD14+ monocytes (Biotinylated human BSSL [1]): 28%
- percentage reduction of b-hBSSL binding to CD14+ monocytes (Biotinylated human BSSL [2]): 23%
- percentage reduction of b-hBSSL binding to CD14+ monocytes (Biotinylated human BSSL [3]): 68%
- percentage reduction of b-hBSSL binding to CD14+ monocytes (Biotinylated human BSSL [4]): 61%
- percentage reduction of b-hBSSL binding to CD14+ monocytes (Biotinylated human BSSL [5]): 50%
- Kd [6]: 0.8 nM
B2: S-SL048-48 hIgG4 S228P (antibody, V domains shown)
VH: B1 VH with Y52N, K65Q
VL: B1 VL with S27P, P54Q
notes: Tested as human IgG4 S228P

- Kd (Mouse BSSL, recombinant): 83 nM
- percentage reduction of b-hBSSL binding to CD14+ monocytes (Biotinylated human BSSL [1]): 12%
- percentage reduction of b-hBSSL binding to CD14+ monocytes (Biotinylated human BSSL [2]): 12%
- percentage reduction of b-hBSSL binding to CD14+ monocytes (Biotinylated human BSSL [3]): 51%
- percentage reduction of b-hBSSL binding to CD14+ monocytes (Biotinylated human BSSL [4]): 43%
- percentage reduction of b-hBSSL binding to CD14+ monocytes (Biotinylated human BSSL [5]): 39%
- Kd [6]: 8 nM
B3: S-SL048-66 hIgG4 S228P (antibody, V domains shown)
VH: B1 VH with I48M, Y52N, A61N
VL: B1 VL with R24S, S27Q, A49D, T50A, R52S, P54A, S93T
notes: Tested as human IgG4 S228P
